B1: ABL2 (protein, UniProt P42684 2-1182, looked up)
Tyrosine-protein kinase ABL2: GQQVGRVGEAPGLQQPQPRGIRGSSAARPSGRRRDPAGRTTETGFNIFTQHDHFASCVEDGFEGDKTGGSSPEALHRPYGCDVEPQALNEAIRWSSKENLLGATESDPNLFVALYDFVASGDNTLSITKGEKLRVLGYNQNGEWSEVRSKNGQGWVPSNYITPVNSLEKHSWYHGPVSRSAAEYLLSSLINGSFLVRESESSPGQLSISLRYEGRVYHYRINTTADGKVYVTAESRFSTLAELVHHHSTVADGLVTTLHYPAPKCNKPTVYGVSPIHDKWEMERTDITMKHKLGGGQYGEVYVGVWKKYSLTVAVKTLKEDTMEVEEFLKEAAVMKEIKHPNLVQLLGVCTLEPPFYIVTEYMPYGNLLDYLRECNREEVTAVVLLYMATQISSAMEYLEKKNFIHRDLAARNCLVGENHVVKVADFGLSRLMTGDTYTAHAGAKFPIKWTAPESLAYNTFSIKSDVWAFGVLLWEIATYGMSPYPGIDLSQVYDLLEKGYRMEQPEGCPPKVYELMRACWKWSPADRPSFAETHQAFETMFHDSSISEEVAEELGRAASSSSVVPYLPRLPILPSKTRTLKKQVENKENIEGAQDATENSASSLAPGFIRGAQASSGSPALPRKQRDKSPSSLLEDAKETCFTRDRKGGFFSSFMKKRNAPTPPKRSSSFREMENQPHKKYELTGNFSSVASLQHADGFSFTPAQQEANLVPPKCYGGSFAQRNLCNDDGGGGGGSGTAGGGWSGITGFFTPRLIKKTLGLRAGKPTASDDTSKPFPRSNSTSSMSSGLPEQDRMAMTLPRNCQRSKLQLERTVSTSSQPEENVDRANDMLPKKSEESAAPSRERPKAKLLPRGATALPLRTPSGDLAITEKDPPGVGVAGVAAAPKGKEKNGGARLGMAGVPEDGEQPGWPSPAKAAPVLPTTHNHKVPVLISPTLKHTPADVQLIGTDSQGNKFKLLSEHQVTSSGDKDRPRRVKPKCAPPPPPVMRLLQHPSICSDPTEEPTALTAGQSTSETQEGGKKAALGAVPISGKAGRPVMPPPQVPLPTSSISPAKMANGTAGTKVALRKTKQAAEKISADKISKEALLECADLLSSALTEPVPNSQLVDTGHQLLDYCSGYVDCIPQTRNKFAFREAVSKLELSLQELQVSSAAAGVPGTNPVLNNLLSCVQEISDVVQR
B2: STAT5A (protein, UniProt P42229 1-794, looked up)
Signal transducer and …: MAGWIQAQQLQGDALRQMQVLYGQHFPIEVRHYLAQWIESQPWDAIDLDNPQDRAQATQLLEGLVQELQKKAEHQVGEDGFLLKIKLGHYATQLQKTYDRCPLELVRCIRHILYNEQRLVREANNCSSPAGILVDAMSQKHLQINQTFEELRLVTQDTENELKKLQQTQEYFIIQYQESLRIQAQFAQLAQLSPQERLSRETALQQKQVSLEAWLQREAQTLQQYRVELAEKHQKTLQLLRKQQTIILDDELIQWKRRQQLAGNGGPPEGSLDVLQSWCEKLAEIIWQNRQQIRRAEHLCQQLPIPGPVEEMLAEVNATITDIISALVTSTFIIEKQPPQVLKTQTKFAATVRLLVGGKLNVHMNPPQVKATIISEQQAKSLLKNENTRNECSGEILNNCCVMEYHQATGTLSAHFRNMSLKRIKRADRRGAESVTEEKFTVLFESQFSVGSNELVFQVKTLSLPVVVIVHGSQDHNATATVLWDNAFAEPGRVPFAVPDKVLWPQLCEALNMKFKAEVQSNRGLTKENLVFLAQKLFNNSSSHLEDYSGLSVSWSQFNRENLPGWNYTFWQWFDGVMEVLKKHHKPHWNDGAILGFVNKQQAHDLLINKPDGTFLLRFSDSEIGGITIAWKFDSPERNLWNLKPFTTRDFSIRSLADRLGDLSYLIYVFPDRPKDEVFSKYYTPVLAKAVDGYVKPQIKQVVPEFVNASADAGGSSATYMDQAPSPAVCPQAPYNMYPQNPDHVLDQDGEFDLDETMDVARHVEELLRRPMDSLDSRLSPPAGLFTSARGSLS
B3: CAMLG (protein, UniProt P49069 1-296, looked up)
Guided entry of tail-anchored …: MESMAVATDGGERPGVPAGSGLSASQRRAELRRRKLLMNSEQRINRIMGFHRPGSGAEEESQTKSKQQDSDKLNSLSVPSVSKRVVLGDSVSTGTTDQQGGVAEVKGTQLGDKLDSFIKPPECSSDVNLELRQRNRGDLTADSVQRGSRHGLEQYLSRFEEAMKLRKQLISEKPSQEDGNTTEEFDSFRIFRLVGCALLALGVRAFVCKYLSIFAPFLTLQLAYMGLYKYFPKSEKKIKTTVLTAALLLSGIPAEVINRSMDTYSKMGEVFTDLCVYFFTFIFCHELLDYWGSEVP
B4: Cdh1 (protein, UniProt P12830 155-882, looked up)
Cadherin-1: DWVIPPISCPENEKGPFPKNLVQIKSNKDKEGKVFYSITGQGADTPPVGVFIIERETGWLKVTEPLDRERIATYTLFSHAVSSNGNAVEDPMEILITVTDQNDNKPEFTQEVFKGSVMEGALPGTSVMEVTATDADDDVNTYNAAIAYTILSQDPELPDKNMFTINRNTGVISVVTTGLDRESFPTYTLVVQAADLQGEGLSTTATAVITVTDTNDNPPIFNPTTYKGQVPENEANVVITTLKVTDADAPNTPAWEAVYTILNDDGGQFVVTTNPVNNDGILKTAKGLDFEAKQQYILHVAVTNVVPFEVSLTTSTATVTVDVLDVNEAPIFVPPEKRVEVSEDFGVGQEITSYTAQEPDTFMEQKITYRIWRDTANWLEINPDTGAISTRAELDREDFEHVKNSTYTALIIATDNGSPVATGTGTLLLILSDVNDNAPIPEPRTIFFCERNPKPQVINIIDADLPPNTSPFTAELTHGASANWTIQYNDPTQESIILKPKMALEVGDYKINLKLMDNQNKDQVTTLEVSVCDCEGAAGVCRKAQPVEAGLQIPAILGILGGILALLILILLLLLFLRRRAVVKEPLLPPEDDTRDNVYYYDEEGGGEEDQDFDLSQLHRGLDARPEVTRNDVAPTLMSVPRYLPRPANPDEIGNFIDENLKAADTDPTAPPYDSLLVFDYEGSGSEAASLSSLNSSESDKDQDYDYLNEWGNRFKKLADMYGGGEDD
B5: APBB2 (protein, UniProt Q92870 1-758, looked up)
Amyloid beta precursor …: MSEVLPADSGVDTLAVFMASSGTTDVTNRNSPATPPNTLNLRSSHNELLNAEIKHTETKNSTPPKCRKKYALTNIQAAMGLSDPAAQPLLGNGSANIKLVKNGENQLRKAAEQGQQDPNKNLSPTAVINITSEKLEGKEPHPQDSSSCEILPSQPRRTKSFLNYYADLETSARELEQNRGNHHGTAEEKSQPVQGQASTIIGNGDLLLQKPNRPQSSPEDGQVATVSSSPETKKDHPKTGAKTDCALHRIQNLAPSDEESSWTTLSQDSASPSSPDETDIWSDHSFQTDPDLPPGWKRVSDIAGTYYWHIPTGTTQWERPVSIPADLQGSRKGSLSSVTPSPTPENEKQPWSDFAVLNGGKINSDIWKDLHAATVNPDPSLKEFEGATLRYASLKLRNAPHPDDDDSCSINSDPEAKCFAVRSLGWVEMAEEDLAPGKSSVAVNNCIRQLSYCKNDIRDTVGIWGEGKDMYLILENDMLSLVDPMDRSVLHSQPIVSIRVWGVGRDNGRDFAYVARDKDTRILKCHVFRCDTPAKAIATSLHEICSKIMAERKNAKALACSSLQERANVNLDVPLQVDFPTPKTELVQKFHVQYLGMLPVDKPVGMDILNSAIENLMTSSNKEDWLSVNMNVADATVTVISEKNEEEVLVECRVRFLSFMGVGKDVHTFAFIMDTGNQRFECHVFWCEPNAGNVSEAVQAACMLRYQKCLVARPPSQKVRPPPPPADSVTRRVTTNVKRGVLSLIDTLKQKRPVTEMP
B6: ZAP70 (protein, UniProt P43403 1-619, looked up)
Tyrosine-protein kinase ZAP-70: MPDPAAHLPFFYGSISRAEAEEHLKLAGMADGLFLLRQCLRSLGGYVLSLVHDVRFHHFPIERQLNGTYAIAGGKAHCGPAELCEFYSRDPDGLPCNLRKPCNRPSGLEPQPGVFDCLRDAMVRDYVRQTWKLEGEALEQAIISQAPQVEKLIATTAHERMPWYHSSLTREEAERKLYSGAQTDGKFLLRPRKEQGTYALSLIYGKTVYHYLISQDKAGKYCIPEGTKFDTLWQLVEYLKLKADGLIYCLKEACPNSSASNASGAAAPTLPAHPSTLTHPQRRIDTLNSDGYTPEPARITSPDKPRPMPMDTSVYESPYSDPEELKDKKLFLKRDNLLIADIELGCGNFGSVRQGVYRMRKKQIDVAIKVLKQGTEKADTEEMMREAQIMHQLDNPYIVRLIGVCQAEALMLVMEMAGGGPLHKFLVGKREEIPVSNVAELLHQVSMGMKYLEEKNFVHRDLAARNVLLVNRHYAKISDFGLSKALGADDSYYTARSAGKWPLKWYAPECINFRKFSSRSDVWSYGVTMWEALSYGQKPYKKMKGPEVMAFIEQGKRMECPPECPPELYALMSDCWIYKWEDRPDFLTVEQRMRACYYSLASKVEGPPGSTQKAEAACA
B7: TAB1 (protein, UniProt Q15750 1-504, looked up)
TGF-beta-activated kinase 1 …: MAAQRRSLLQSEQQPSWTDDLPLCHLSGVGSASNRSYSADGKGTESHPPEDSWLKFRSENNCFLYGVFNGYDGNRVTNFVAQRLSAELLLGQLNAEHAEADVRRVLLQAFDVVERSFLESIDDALAEKASLQSQLPEGVPQHQLPPQYQKILERLKTLEREISGGAMAVVAVLLNNKLYVANVGTNRALLCKSTVDGLQVTQLNVDHTTENEDELFRLSQLGLDAGKIKQVGIICGQESTRRIGDYKVKYGYTDIDLLSAAKSKPIIAEPEIHGAQPLDGVTGFLVLMSEGLYKALEAAHGPGQANQEIAAMIDTEFAKQTSLDAVAQAVVDRVKRIHSDTFASGGERARFCPRHEDMTLLVRNFGYPLGEMSQPTPSPAPAAGGRVYPVSVPYSSAQSTSKTSVTLSLVMPSQGQMVNGAHSASTLDEATPTLTNQSPTLTLQSTNTHTQSSSSSSDGGLFRSRPAHSLPPGEDGRVEPYVDFAEFYRLWSVDHGEQSVVTAP

molecular target: T1, EGFR-Wt (Homo sapiens, UniProt P00533); test: MaMTH EGFR-interactor screen, lentiviral preys against EGFR-wildtype bait (interaction score); format: cell-based; settings: MaMTH interaction score of prey with EGFR-Wt bait, mean
T1 construct: with the advantage of testing full-length integral membrane proteins; (GGGGS)2 linker-Cub (human ubiquitin aa 35-76)-GAL4(1-147)-mNFkB(364-550) (C); expressed in transfected cells
Procedure: (§1) After lentivirus harvest, target cells (stable 5×GAL4UAS-luciferase reporter-HEK293T cells) were infected at a multiplicity of infection (MOI) of around 0.3-0.4 to ensure single copy integration per cell. Cells were selected in puromycin for at least 48 h and transfected with either EGFR-wildtype or EGFR-L858R baits in triplicates. 24 h after transfection, cells were lysed and luciferase assays performed. On each set of interaction assays, various negative controls were included. To calculate a MaMTH-interaction scores, negative controls were averaged and the fold-change of luciferase activity compared to the averaged controls was calculated and defined as the interaction score.
(§2) Each set of experiments contains a defined set of negative controls in at least three replicates. Negative controls were chosen as such that there is a range of controls showing high-background luciferase activity (normally cytosolic proteins: Fabp5, Pex19) as well as medium-background luciferase activity (membrane-bound interactors: Pex7, GABBR2). Negative controls were averaged and the fold-change of luciferase activity was calculated. Using this method, we have a stringent cut-off and chose an interaction score >1 to be interacting proteins.
(§3) Our cut-off of 1 is based on fold-change difference in luciferase activity over averaged negative controls. Negative controls include cytosolic preys (which tend to promiscuously bind to many proteins), plasma membrane- and peroxisomal-prey proteins. In general, we chose stringent conditions by testing preys that tend to have high luciferase background with any bait tested, in order to generate high-confidence interaction data. […] Phosphorylated tyrosine residues on the receptor are typically docking sites for downstream cytoplasmic targets and recognized through SH2 or PTB domains^43.

Row | EGFR-Wt mean | Molecule
1 | 4.63 | B1
2 | 3.12 | B2
3 | 7.16 | B3
4 | 2.14 | B4
5 | 3.05 | B5
6 | 16.92 | B6
7 | 5.84 | B7

test system: EGFR-Wt; test: as above; format: cell-based, human; settings: ratio of EGFR-Wt mean to EGFR-L858R mean interaction score
Procedure: as §1, §2, §3

Row | Molecule | Wt/L858R
8 | B1 | 1.04
9 | B2 | 0.96
10 | B3 | 1.00
11 | B4 | 0.94
12 | B5 | 1.05
13 | B6 | 1.04
14 | B7 | 0.98

molecular target: T2, EGFR-L858R (Homo sapiens, UniProt P00533, L858R); test: MaMTH EGFR-interactor screen, lentiviral preys against EGFR-L858R bait (interaction score); format: cell-based; settings: MaMTH interaction score of prey with EGFR-L858R bait
T2 construct: with the advantage of testing full-length integral membrane proteins; (GGGGS)2 linker-Cub (human ubiquitin aa 35-76)-GAL4(1-147)-mNFkB(364-550) (C); expressed in transfected cells
Procedure: as §1, §2, §3

Row | EGFR-L858R mean | Molecule
15 | 4.47 | B1
16 | 3.26 | B2
17 | 7.17 | B3
18 | 2.27 | B4
19 | 2.92 | B5
20 | 16.20 | B6
21 | 5.95 | B7

From patent US9958461B2, “Detection of protein to protein interactions” (THE GOVERNING COUNCIL OF THE UNIVERSITY OF TORONTO, priority 2013, dated 2018)
